{"source": "paper PMC4637192", "molecular_target": "HLA-DRB5*01:01 molecule (recombinant HLA-DRA1 and DRB5*01:01 chains) (human)", "assay": "AlphaScreen or HTRF"}
{"substance": "IE1 211-225 variant P3 K→Y (…) (peptide)", "values": [{"measurement": "IC50", "result": 8, "unit": "nM"}]}
